Data as given in the nanobody polyreactivity screen of Harvey et al. (2022).

Assay: yeast display, Sf9 membrane polyspecificity reagent, FACS + sequencing; frameworks hold sequencing errors
In short: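 In a synthetic yeast display library (Saccharomyces cerevisiae BJ5465), nanobody expression was induced with galactose for 36–48 hours. FACS gates were set low and high (top ~1%) using anti-HA fluorescence for expression and streptavidin fluorescence for binding of the Sf9 membrane reagent. Each polyreactivity label is drawn from the gate of origin.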

Row | Sequence | polyreactivity (PSR sort gate)
1 | QVQLVESGGGLVHAGGSLRLSCAASGSNFNINAMGWYRQAPGKERELVAAITTSGGRTYYSDSVKGRFTISRDNAKNTVYLQMNSLKPEDTAVYYCNARHLPGSRSWRWITYDYWGQGTQVTVSS | low polyreactivity
2 | QVQLVESGGGLVHAGGSLRLSCAASGSTFGRYTMGWYRQAPGKERELVAAISYSSGRTYYADSVKGRFTISRDNGKNTVYLQMNSLKAEDSAVYYCAAVSRGRGEYDYWGQGTQVTVSS | high polyreactivity
3 | QVQLVESGGGLVHAGGSLRLSCAASGSTFLPNVMGWYRQAPGTERELVAANSSRGGRTYYADSVKGRFTISRDNAKNTVYLQMNSLKPEDTAVYYCAAYTRDTTGSAGIYRDDYWGQGTQVTVSS | high polyreactivity
4 | QVQLVESGGGLVHAGGSLRLSCAASGSTFSRNVMVWYRQAPGKEWELVAAISRGGSTNYADSVKGRFTISRENAKNTVYLQMKSLKPEDTAVYYCNAPRLGKFYNWGQGTQVTVSS | low polyreactivity
5 | QVQLVESGGGLVHAGGSLRLSCAASGSTFWYNAMGWYRQAPGKERELVAAITWSGSRTYYSDSVKGRFTISRDNAKNTVYLQMNSLKPEDTAVYYCNRTRSFTRYDVFYGTIPAFDYWGQGTQVTVSS | high polyreactivity
6 | QVQLVESGGGLVHAGGSLRLSCAASGSTFYQNGMGWYRQAHGQERELVAALTGDGGSTYYADSVKGRFTISRDNAKNTVSLHMNSLKPEDTAVYYCAADWTVITDSQFNSGYDYWGQGTQVTVSS | low polyreactivity
7 | QVQLVESGGGLVHAGGSLRLSCAASGSTLRGYVMGWYRQAPGKERELVAAITQRAGSTYYADSVKGRFTISRDNAKNPVYLQMNSLKAEDTAVYYCNVDRHYAVESGYWGQGTQVTVSS | high polyreactivity
8 | QVQLVESGGGLVHAGGSLRLSCAASVSIFASNAMGWYRQAPGKERELVAAITSSGRTKYADSVKGRFTISRDNAKNTVYLQMNSLNPEDTAVYYCAAVYYTYFGRYDYWGQGTQVTVSS | high polyreactivity
9 | QVQLVESGGGLVHAGGSLRLSCAAYGRTFYTYAMGWYSQAPGKVRELVAAISSSGSTYYADSVKGRFTISRDNAKYTVYLQMNSLKPEDTAVYYCNARTSRYRRGGDSWGQGTQVTVSS | high polyreactivity
10 | QVQLVESGGGLVHAGGSLRLSCADSGSIFGWYVMGWYRQAPGKVREFVAAISSVGSTYYADSVKGRFTISRDNAKNTVSLQMNSLKPEDTAVYYCAKLRYPYLFWDDSEYWGQGTQVTVSS | low polyreactivity
11 | QVQLVESGGGLVHAGGSLRLSCAGSGSTFRPYAMGWYRQAPGKERELVAAIRKIGGRTYYADSVKGRFTISRDNAKNTVYLQMNSLKPEDTAVYNCNKRIGGGVHAYNYWGQGTQVSVSS | low polyreactivity
12 | QVQLVESGGGLVHAGGSLRLSCPASGRIFPHYAMGWYRQAPGKEREMVAAISGRGGNTYYADSVKGRFTISRDNAKNTVYLQMNSLKPEDTAVYYCAADVSWRPSWGYDYWGQGTQVTVSS | high polyreactivity
13 | QVQLVESGGGLVHAGGSLRLSFAASGRTFVNNAMGWYRQAPGKERELVAAITGSCGSTYYADSVKGRFTISRDNAKNTFYLQMNSLKPEYTAVYYCAKRHVGSRYLFDYWGQGTQVTVSS | low polyreactivity
14 | QVQLVESGGGLVHAGGSLRLSSAASGRISLSNAMRWYTQAPGKETEFVAAITKRSDRTYYADSVKGRFTNSRDNAKNPVYLQMNSLKPEETAVYYCGAKPLFGTRDDYWGQGTQVTVSS | low polyreactivity
15 | QVQLVESGGGLVHAGGSLRLSSSASGSTFPVYAMGWYRQAPGKQRELVAAITSGVSTNYADSVKWRFTISRENAKNTVYLQMNSLKPEDTAVYYCAKDFGLLPIRDDYWGQGTQVTVSS | low polyreactivity
16 | QVQLVESGGGLVHAGGSLSLSCAASGPIFGSYGMGWYRQAPGKERELVAAISYSGGRTFYADSVKGRFTISRDNAKNNVYLQMNSLKPEDTAVYYCNKRYIPSYMSHLDYWGQGTQVTVSS | high polyreactivity
17 | QVQLVESGGGLVHAGGSLSLSCAASGSIFGYYAKGWYRQAPGKERELVAAITVSGGSTYYADSVKGRFTISRDNAKNTDYLQLISLKPEDTAVYYCAADDIYGEYYYWGQGTQVTVSS | high polyreactivity
18 | QVQLVESGGGLVHAGGTLRLTCAASGFIFKRYTLGWYRQAPGQERELFATINRNGGNTYYADSVKGRFTISRDNAKNTVYLQMNILKPEDTSVYYCNARYWRAQGWPGYDYWGQGTQVTVSS | high polyreactivity
19 | QVQLVESGGGLVHAGSSLRLSCAASGSTYPYNAMGWYRQAPGKERELVAAIDYSGGSTYAVSVKGRFTISRDNAKNTVYLQMNSLTPEDTAVYYCAYCRVVVYDVSGDDEDYDYWGQGSQVTVSS | low polyreactivity
20 | QVQLVESGGGLVHAVGSHRLSCTASGSTFVAYPMGWYRQAPGKERELVAAITSSGGRTYYADSVKGRFTISRDNSKNTVYLQINSLKPEDTAVYYCAAVTHGRYDWGQGTQVTVSS | high polyreactivity
21 | QVQLVESGGGLVHAVGSLRLSCAASGFIFHEYAMGCYIQAPGKERELVAAISSGGGSTYYADSVKGRFTISRDNAKNTVYLQMNSLKPEDTAVYYCAADATAYSVLTRDYWGQGTQVTVSS | high polyreactivity
22 | QVQLVESGGGLVKAGGPLRLSCAASGSIFYYNPMGWYRQAPGTERELVAAITSGDSTNYADSVKGRFTISRDNAKNSVYLQLNSLKPEDTAVYYCAADYLAALTYYRTYDYWGEGTQVTVSS | low polyreactivity

Row | Sequence | polyreactivity (PSR sort gate)
23 | QVQLVESGGGLVKAGGSLRISCAASGFTFVSYSKGWYRQAPGKERELVADISSGVSTNYADSVKGRFTISRDNAKNTVYLQMNSLNPEDTAVYYCAAYGTKWGRGFYITGYGYWGQGTQVTVSS | low polyreactivity
24 | QVQLVESGGGLVKAGGSLRLSCAASGFIFVPYAMGWYRQAPGKERELVAAITWSSGGNTYYADSVKGRFTISRDNAKNTVYLQMNSLKPEDTAVYYCAAEWYEAGYWYDYWGQGTQVTVSS | high polyreactivity
25 | QVQLVESGGGLVKAGGSLRLSCAASGFTFTIYAMGWYRQAPGKERELVAAITNSGDTNYADSVKGRFTISRDNAKNTVYLQMNSLKPEDTAVYYCAKAYYIGYFFNFGSWGQGTQVTVSS | low polyreactivity
26 | QVQLVESGGGLVKAGGSLRLSCAASGGTFNRNAMGWYRQAPAKERELVAAICSSGGRTYYADSVKGRFTISRDNAKNTVYLQMNSLKPEDTAGYYCAAGRKGHGGAYDSWGQGTQVTVSS | high polyreactivity
27 | QVQLVESGGGLVKAGGSLRLSCAASGITFWRYTMGWYRQAPGIERELVAAITSRGGNTYYADSVKGRFTISRDNAKNTVYLQLNSLKPEDTAVNYCNADRYNKYWYDYWGQGTQVTVSS | high polyreactivity
28 | QVQLVESGGGLVKAGGSLRLSCAASGLNFNRYTMGWNRQAPGKERELVAVIDCSGGSTRYADSVKGRFTISRDNAKNTVDLQMNSLKPEDTAVYYCDYYWAQGTQVTVSS | low polyreactivity
29 | QVQLVESGGGLVKAGGSLRLSCAASGRICSSYAMGWYRQAPGKERELVAAISRGGGRTYYADSVKGRFTNSRDNAKNTVYLQMNSLKPEDTAGYYCAAGRRYASEMDYWGLGTQVTVSS | high polyreactivity
30 | QVQLVESGGGLVKAGGSLRLSCAASGRIFDYNAMGWYRQAPGKERELVAAISYSGGGTYYADSVKGRFTISRDYAKNSVYFQMNSLKPEDTAVYYCAKPYYQYYYISYDYWGQGTQVTVSS | low polyreactivity
31 | QVQLVESGGGLVKAGGSLRLSCAASGRIFYYNTMGWYRQAPGKERELVAAITTNGGSTYYADSVKGRFTISRDNAKNTVYLQMNSLKPEDTAVYYCNRDRYPYYYAYNYWGQGTQVTVSS | low polyreactivity
32 | QVQLVESGGGLVKAGGSLRLSCAASGRTFWIYAMGWYRPAPGKERELRAAISQSSSNTYYADSVKGRVTLSRDNAKNTVYLQMNSLKPEDTAVYYCNAVVLRYQGSWLEYWGQGTQVTVSS | low polyreactivity
33 | QVQLVESGGGLVKAGGSLRLSCAASGSIFKSNAMGWYRQAPGKEWELVAAISDSGGSTYYADSVKGRFTISRDNAKNTVYLQMNSLKPEDTAVYYCNADWSWYNYYDFDYWGQGTQVTVSS | low polyreactivity
34 | QVQLVESGGGLVKAGGSLRLSCAASGSIFLTYAMGWNRQAPGKERELVAAITQSGGSTYYADSVKGRFTISRDNAKNTVYLQMNSLKPEDTAVYYCAADVFGPQYWWYDYWGQGTQVTVSS | low polyreactivity
35 | QVQLVESGGGLVKAGGSLRLSCAASGSIFYFNAMGWYRQAPGKERELVATIRSGDGRTYYADSVKGRFTISRDNAQNTVYLQMNSLKPEDTAVYYCNASRVVYRQAYVYGYDYWGKGTQVTVSS | low polyreactivity
36 | QVQLVESGGGLVKAGGSLRLSCAASGSTFDYYAMGWYRQAPGKERELVAAISGSGGSTYYADSVKGRFTISRDIAKNTVYLQMNSLKPEDTAVYYCATVRSRLFGQYYYWGQGTQVTVSS | high polyreactivity
37 | QVQLVESGGGLVKAGGSLRLSCAASGSTFERYAMGWYRQAPGKERELVAAINWSGGGTYYADSVKGRFTISRDNAKNTVYFQMNSLKPEDTAVYYCAADSGTVVFSLWWYEYYYWGQGTQVTVSS | low polyreactivity
38 | QVQLVESGGGLVKAGGSLRLSCAASGSTFLWTTMGWYRPAPGKERELVAAISRSGGSTYYADSVKGRFTISRDNAKNTVYLQMISLKPEDTAVYYCAARTAGPWSWYHYWGQGTQVTVSS | high polyreactivity
39 | QVQLVESGGGLVKAGGSLRLSCAASGSTFWYNAMGCYRQAPRKERELVAAITRGASTNYADSVKGRFTISRDNAKNTVYLQMNCLKPEDTAVYYCAGGPARWKGYYWGQGTQVTVSS | high polyreactivity
40 | QVQLVESGGGLVKAGGSLRLSCAASGSTYQTYAMGWYRHAPGKERELVAAISFNGGSTYYADSVKGRFTISRDNAKNTVYLQMNSLKPEDTAVYYCAVEYTWASALYDGRHDYWGQGTQVTVSS | high polyreactivity
41 | QVQLVESGGGLVKAGGSLRLSCVASGLMFGYCAMGWYRQPPGTERELVAVISWSGTSRYYADSVKGRFTISRDNAKNTVYLQMNSLKPEDTAVYYCIADTYGYYLWTGAVSAGDDYWVQGTQVTVSS | low polyreactivity
42 | QVQLVESGGGLVKAGGSLRLTCSASGSIFRRNALRCSRHAPGKERELDAAISSGGSTNYADSVKGRFTISRDNAKNTVYLQMISQKPEDSAVYYCNTRYFRRARKGDSWGQGTQVTVSS | high polyreactivity
43 | QVQLVESGGGLVKAGVSLRLICAASGSTFDGNDMGWYRQAHGKERELVATINSDDSKNYADSVKGRFTISRDNAKNTVYLQMNSLKPEDTAVYYCAARLYVTPILSYVERYTNDYWGQGTQVTVSS | low polyreactivity
